# Columns and labels:
# Assay in all cases: IEDB peptide-MHC binding, purified MHC/competitive/radioactivity; filed as Kd, often an IC50 or EC50 that approximates it; ≥ and ≤ were set here for values at or beyond the usual limits of such assays
# [1] = target: HLA-A*11:01
# [2] = target: HLA-A*03:01
# [3] = target: HLA-A*31:01
# [4] = target: HLA-A*68:01
# [5] = target: HLA-A*33:01
# [6] = source organism: Triticum aestivum
# [7] = source organism: Vaccinia virus WR
# [8] = source organism: Dengue virus 2 Jamaica/1409/1983
# [9] = source organism: Dengue virus 4 Philippines/H241/1956
# [10] = source organism: Dengue virus 1 Brazil/97-11/1997
# [11] = source organism: SARS coronavirus Tor2
# [12] = source organism: Mammarenavirus lassaense
# [13] = source organism: Lassa virus Josiah
# [14] = source organism: Dengue virus 3 Martinique/1243/1999
# [15] = source organism: Lymphocytic choriomeningitis virus (strain Pasteur)
# [16] = source organism: Dengue virus 1 Nauru/West Pac/1974
# [17] = source organism: Mammarenavirus guanaritoense
Sequence,"Kd [2, 7] [µM]","Kd [3, 7] [µM]","Kd [1, 7] [µM]","Kd [4, 7] [µM]","Kd [5, 7] [µM]",also measured
KTSSVARLR,,,,,,Kd ([1]; source organism: Lymphocytic choriomeningitis virus (strain Armstrong)): 0.0728 µM
LQQHNIVHGK,,,,,,"Kd [2, 6]: 1.16 µM; Kd [3, 6]: 2.42 µM; Kd [1, 6]: 0.1 µM; Kd [4, 6]: ≥ 47.9 µM; Kd [5, 6]: ≥ 70 µM"
PAGRPNYVK,≥ 31.9,0.012,0.21,15.9,7.21,
DVSLSAYIIR,2.41,0.387,0.609,0.24,1.12,
LTTLSRTSK,,,,,,"Kd [1, 8]: 0.214 µM"
QAAVLMGLGK,,,,,,"Kd [4, 9]: 0.0607 µM"
GVRVRVAVNK,0.0522,12.1,0.84,2.19,≥ 70,
VTPEYIKDLK,14.3,15.1,0.522,0.374,≥ 70,
SLLTCAKFK,,,,,,"Kd [2, 10]: 0.021 µM"
LTSMKYFVK,,,,,,"Kd [2, 11]: 0.223 µM; Kd [3, 11]: 0.0749 µM; Kd [1, 11]: 0.0199 µM; Kd [4, 11]: 0.234 µM; Kd [5, 11]: 0.939 µM"
AVNKSNKPLK,1.09,1.56,0.147,5.96,≥ 47,
VVYDAKFEK,,,,,,"Kd [2, 10]: 0.00701 µM; Kd [1, 10]: 0.0424 µM"
FQGKFKKIVK,,,,,,"Kd [2, 11]: 9.46 µM; Kd [3, 11]: 13.4 µM; Kd [1, 11]: 2.88 µM; Kd [4, 11]: ≥ 24.2 µM; Kd [5, 11]: ≥ 24.7 µM"
RSTPFNMLKR,,,,,,"Kd [3, 8]: 1.39 µM"
ENAVWDQCK,,,,,,"Kd [2, 12]: ≥ 78 µM; Kd [3, 12]: ≥ 77.9 µM; Kd [1, 12]: ≥ 77.9 µM; Kd [4, 12]: 1.48 µM; Kd [5, 12]: ≥ 38 µM"
VIEYAKSISK,0.129,10.8,0.165,2.72,17.5,
FLWTQSLRR,,,,,,"Kd [2, 13]: 0.0407 µM; Kd [3, 13]: 2.05 µM; Kd [1, 13]: 0.723 µM; Kd [4, 13]: 0.32 µM; Kd [5, 13]: 2.9 µM"
IVTMMKYCSY,0.127,0.0316,0.0268,0.0415,0.235,
STYGWNIVK,,,,,,"Kd [2, 14]: 0.00475 µM"
SMTIREFPRK,0.0101,0.0396,0.00318,1.25,6.88,
KFAEESYTY,≥ 78,13.5,16.5,≥ 38.7,≥ 77.7,
VSTGESSILR,≥ 24.9,1.39,0.204,0.119,3.23,
PVYLMTLMK,,,,,,"Kd [2, 9]: 0.00391 µM; Kd [1, 9]: 0.196 µM"
TYLGPLNCK,,,,,,"Kd [2, 15]: 0.481 µM; Kd [3, 15]: 5.22 µM; Kd [1, 15]: 0.0478 µM; Kd [4, 15]: 0.699 µM; Kd [5, 15]: 0.834 µM"

Sequence,"Kd [2, 7] [µM]","Kd [3, 7] [µM]","Kd [1, 7] [µM]","Kd [4, 7] [µM]","Kd [5, 7] [µM]",also measured
CVDIFTEGK,3.75,16.3,0.0783,0.0186,≥ 77.7,
VTLFFLSGR,,,,,,"Kd [3, 16]: 7.49 µM; Kd [5, 16]: 0.098 µM"
KLRPRWLDAR,,,,,,"Kd [3, 10]: 0.000403 µM"
KCSDHYLCLR,,,,,,"Kd [2, 17]: 4.76 µM; Kd [3, 17]: 0.14 µM; Kd [1, 17]: ≥ 44.8 µM; Kd [4, 17]: ≥ 70.1 µM; Kd [5, 17]: 5.78 µM"
ILCFTIKRK,,,,,,"Kd [2, 11]: 1 µM; Kd [3, 11]: 6.68 µM; Kd [1, 11]: 7.71 µM; Kd [4, 11]: 17.2 µM; Kd [5, 11]: ≥ 45 µM"
FIQWTGGNIR,≥ 29.8,3.86,≥ 22,0.112,2.05,
VVKDDPDHY,≥ 78,≥ 77.9,1.8,8.05,≥ 77.7,
QTMLFTMLRK,,,,,,"Kd [2, 11]: 0.0111 µM; Kd [3, 11]: 0.164 µM; Kd [1, 11]: 0.00457 µM; Kd [4, 11]: 0.0199 µM; Kd [5, 11]: 0.268 µM"
GFNTLKPIFK,,,,,,"Kd [2, 11]: 0.14 µM; Kd [3, 11]: 1.83 µM; Kd [1, 11]: 0.105 µM; Kd [4, 11]: 1.96 µM; Kd [5, 11]: 19.6 µM"
VVYRGTTTYK,,,,,,"Kd [2, 11]: 0.00574 µM; Kd [3, 11]: 0.26 µM; Kd [1, 11]: 0.0158 µM; Kd [4, 11]: 0.0116 µM; Kd [5, 11]: 6.92 µM"
AMPNLYKMQR,,,,,,"Kd [2, 11]: 1.04 µM; Kd [3, 11]: 0.24 µM; Kd [1, 11]: 1.01 µM; Kd [4, 11]: 1.97 µM; Kd [5, 11]: 11.7 µM"
WLYYNQDVQR,1.84,0.222,7.91,0.00821,0.161,
LLVKMINHLK,0.258,5.42,0.4,0.776,≥ 67.5,
VTSSGVIYK,,,,,,Kd ([2]; source organism: Variola virus): ≥ 70 µM; Kd ([3]; source organism: Variola virus): ≥ 70 µM; Kd ([1]; source organism: Variola virus): ≥ 69.7 µM; Kd ([4]; source organism: Variola virus): ≥ 70.1 µM; Kd ([5]; source organism: Variola virus): ≥ 70 µM
ISAEKTPIR,≥ 78,≥ 41.7,6.02,0.275,≥ 77.7,
TMPNESRVK,17.5,≥ 61.6,0.93,2.04,≥ 77.7,
VAEHRFENMK,4.87,≥ 34.7,0.788,5.73,≥ 70,
TVENNIDFLK,2.65,8.65,0.0699,0.0197,17.9,
LIKTILASY,0.568,7.44,7.87,10.3,18.7,
TAKLRWFVER,,,,,,"Kd [3, 10]: ≥ 28.4 µM; Kd [5, 10]: 0.0342 µM"
FSSLRREHIK,1.02,0.144,0.277,0.0941,17.4,
STAEQLSKY,2.43,≥ 77.9,0.133,0.0549,≥ 77.7,
EWLWRTLGR,,,,,,"Kd [5, 14]: 0.00826 µM"
KLILAEYIR,8.07,0.0681,15.2,2.09,9.56,

Sequence,"Kd [2, 7] [µM]","Kd [3, 7] [µM]","Kd [1, 7] [µM]","Kd [4, 7] [µM]","Kd [5, 7] [µM]",also measured
DQAMTQMYK,,,,,,"Kd [2, 11]: 2.56 µM; Kd [3, 11]: 6.97 µM; Kd [1, 11]: 0.866 µM; Kd [4, 11]: 0.121 µM; Kd [5, 11]: 8.45 µM"
LITGNMSFR,,,,,,"Kd [4, 8]: 0.0262 µM; Kd [5, 8]: 1.31 µM"
LIKNAQTPR,,,,,,"Kd [3, 9]: 0.0136 µM"
CIRNASKFVY,17.5,≥ 70,19.9,≥ 37,≥ 70,
FFASFYYIWK,,,,,,"Kd [2, 11]: 0.285 µM; Kd [3, 11]: 0.734 µM; Kd [1, 11]: 0.243 µM; Kd [4, 11]: 0.0862 µM; Kd [5, 11]: 0.0609 µM"
LLLTSSQQK,,,,,,"Kd [2, 8]: 0.0155 µM"
NIVTDLENR,9.09,1.74,8.74,0.0219,0.832,
DFRDYQSYR,≥ 78,0.0745,13.6,1.02,0.000837,
TQLYLGGMSY,,,,,,"Kd [2, 11]: 0.0365 µM; Kd [3, 11]: 5.84 µM; Kd [1, 11]: 0.766 µM; Kd [4, 11]: 1.35 µM; Kd [5, 11]: ≥ 40 µM"
TIDNPTKYIR,15.7,0.115,2.6,0.158,4.26,
RMIVGKNER,,,,,,"Kd [3, 14]: 0.0161 µM"
RASLIPDATH,,,,,,"Kd [3, 13]: 1.98 µM; Kd [1, 13]: ≥ 59.1 µM; Kd [4, 13]: 19.6 µM; Kd [5, 13]: ≥ 50.7 µM"
RAVKFAEESY,14.8,≥ 70,14.5,7.29,≥ 70,
ILEYLYIMR,1.57,0.0976,1.09,0.303,0.426,
KKKTPRMCTR,,,,,,"Kd [3, 8]: 0.768 µM"
VVRPPFNMLK,,,,,,"Kd [2, 9]: 0.00444 µM; Kd [1, 9]: 0.0709 µM"
DSYTQMCDHR,,,,,,"Kd [5, 10]: 0.335 µM"
ATTILTPMLR,,,,,,"Kd [3, 9]: 0.0773 µM; Kd [1, 9]: 0.129 µM; Kd [4, 9]: 0.284 µM"
TTILDVDLR,,,,,,"Kd [4, 9]: 0.0358 µM"
RMCTREEFTR,,,,,,"Kd [3, 8]: 0.00572 µM; Kd [5, 8]: 0.654 µM"
DFWKLVDRER,,,,,,"Kd [5, 14]: 0.00151 µM"
LVAPSYGMR,,,,,,"Kd [4, 9]: 0.00384 µM"
IIPALFEPER,,,,,,"Kd [4, 10]: 0.0767 µM"
